# In article PMC9341007 (Structure (London, England : 1993), 2022):
# B1: hCoV-NL63 spike receptor-binding domain (domain or fragment)
# chain: QHTDINFTATASFGGSCYVCKPHQVNISLNGNTSVCVRTSHFSIRYIYNRVKSGSPGDSSWHIYLKSGTCPFSFSKLNNFQKFKTICFSTVEVPGSCNFPLEATWHYTSYTIVGALYVTWSEGNSITGVPYPVSGI
# Molecular target: equine ACE2 peptidase domain (horse (Equus caballus), UniProt A0A9L0TPT7 19-615)
# Experiment: SPR
binder,measurement,value
B1,Kd,0.106 µM
